The text below walks through data of publication doi:10.1101/2023.02.14.528348v1.

Substrate in this series: C[C@H](N)C(=O)N[C@@H](C)C(=O)O
Description: proton-coupled uptake, pyranine fluorescence assay in proteoliposomes. The series is classed as biochemical, Escherichia coli. The following applies: valinomycin / potassium gradient driven membrane potential.

B1: DtpB (Escherichia coli K-12) (protein)
chain: MNTTTPMGMLQQPRPFFMIFFVELWERFGYYGVQGVLAVFFVKQLGFSQEQAFVTFGAFAALVYGLISIGGYVGDHLLGTKRTIVLGALVLAIGYFMTGMSLLKPDLIFIALGTIAVGNGLFKANPASLLSKCYPPKDPRLDGAFTLFYMSINIGSLIALSLAPVIADRFGYSVTYNLCGAGLIIALLVYIACRGMVKDIGSEPDFRPMSFSKLLYVLLGSVVMIFVCAWLMHNVEVANLVLIVLSIVVTIIFFRQAFKLDKTGRNKMFVAFVLMLEAVVFYILYAQMPTSLNFFAINNVHHEILGFSINPVSFQALNPFWVVLASPILAGIYTHLGNKGKDLSMPMKFTLGMFMCSLGFLTAAAAGMWFADAQGLTSPWFIVLVYLFQSLGELFISALGLAMIAALVPQHLMGFILGMWFLTQAAAFLLGGYVATFTAVPDNITDPLETLPVYTNVFGKIGLVTLGVAVVMLLMVPWLKRMIATPESH
B1: the Michaelis constant (Km) turned out to be 290 ± 40 µM.

As usually defined, the Km is the substrate concentration at which the rate is half of its maximum.
